Drawing on patent publication CN111647079A (UNIV BEIBU GULF, dated 2020), this text covers EC50 and Kd for 1 molecule.

For orientation: EC50 means the concentration needed to bring the measured effect to its halfway point. The low end stands for greater potency, the high end for weaker potency. The term Kd denotes the free concentration of one partner at which half of the binding sites on the other are occupied at equilibrium, for simple one-to-one binding. Read a low Kd as a tighter complex.

In experiment [1] the target is NCOV-SARI-N-his (真核表达N蛋白) (SARS-CoV-2, UniProt P0DTC9 1-419).
Experiment [2] concerns the target T1, 2019-NCOV Nucleocapsid (原核表达N蛋白) (SARS-CoV-2, UniProt P0DTC9 1-419).
Experiment [3] concerns the target T1, 2019-NCOV Nucleocapsid (原核表达N蛋白). Briefly: BLI (Fortebio BLItz), […], global fit. (In BLI a coated tip is dipped into the sample, and binding shifts an interference pattern.)

B1: Fab 20抗体 (抗新型冠状病毒N蛋白的中和抗体) (Fab, V domains shown)
VH: VQLLEQSGAEVKKPGSSVKVSCKASGGTFSSYAISWVRQAPGQGLEWMGGTIPIFGTANYAQKFQGRVTITADESTSTAYMELSSLRSEDTAVYYCARGGWSSSAGGYYGMDVWGQGTTVTVSS
VL: not shown
notes: also called HFab20/LFab20
On to B1, for which the EC50 in experiment [1] came to 4.75 µg/mL; in experiment [2], 3.98 µg/mL. The molecule further had a Kd in experiment [3] of 111 nM.
